The data set relates to Escherichia coli TOP10. The experiment in a line: shrunken log2 fold change of peptide-encoding DNA abundance (4.5 h post-induction vs induction); higher = less antimicrobial activity (less host growth inhibition). The following applies: time post-induction: 4.5 h; library: site-saturation at positions 5, 18, 19, 20.
With RRIRWRPPRLPRPRPRPTCCPRP, the “shrunken log2 fold change” value came to 1.13.

In the case of RRIRMRPPRLPRPRPRPPEEPRP, the “shrunken log2 fold change” value came out at 2.13.

As to RRIRGRPPRLPRPRPRPFERPRP, the “shrunken log2 fold change” value was -0.012.

Turning to RRIRYRPPRLPRPRPRPQHSPRP, the “shrunken log2 fold change” value is -0.978.

Take RRIRDRPPRLPRPRPRPPSKPRP: the “shrunken log2 fold change” value worked out at 0.0904.

For RRIRTRPPRLPRPRPRPFIGPRP, the “shrunken log2 fold change” value is -0.353.

With RRIRNRPPRLPRPRPRPNYYPRP, the “shrunken log2 fold change” value is -0.473.

As for RRIRNRPPRLPRPRPRPKDRPRP, the “shrunken log2 fold change” value is -0.0176.

Take RRIRCRPPRLPRPRPRPWYIPRP: the “shrunken log2 fold change” value is -0.331.

Take RRIRTRPPRLPRPRPRPNWIPRP: the “shrunken log2 fold change” value is -0.289.

Consider RRIRERPPRLPRPRPRPMRLPRP, for which the “shrunken log2 fold change” value worked out at 0.472.

Take RRIRRRPPRLPRPRPRPCQGPRP: the “shrunken log2 fold change” value is -0.129.

Turning to RRIRGRPPRLPRPRPRPTMAPRP, the “shrunken log2 fold change” value was 1.24.

For RRIRCRPPRLPRPRPRPQFMPRP, the “shrunken log2 fold change” value is -0.59.

In the case of RRIRGRPPRLPRPRPRPNGFPRP, the “shrunken log2 fold change” value worked out at 0.0031.

Consider RRIRSRPPRLPRPRPRPMDVPRP, for which the “shrunken log2 fold change” value was -0.02.

Take RRIRYRPPRLPRPRPRPGAAPRP: the “shrunken log2 fold change” value worked out at 0.176.

As to RRIRVRPPRLPRPRPRPMMHPRP, the “shrunken log2 fold change” value is -0.365.

As to RRIRPRPPRLPRPRPRPGLNPRP, the “shrunken log2 fold change” value stood at 0.0174.

For RRIRNRPPRLPRPRPRPWVLPRP, the “shrunken log2 fold change” value worked out at 0.0737.

As to RRIRFRPPRLPRPRPRPPRQPRP, the “shrunken log2 fold change” value amounted to 0.828.

For RRIRRRPPRLPRPRPRPKWVPRP, the “shrunken log2 fold change” value was 0.242.

Turning to RRIRPRPPRLPRPRPRPSQNPRP, the “shrunken log2 fold change” value was -0.107.

RRIRPRPPRLPRPRPRPFKQPRP: the “shrunken log2 fold change” value was -0.258.

With RRIRIRPPRLPRPRPRPSLKPRP, the “shrunken log2 fold change” value is -0.154.

Regarding RRIRVRPPRLPRPRPRPQPEPRP, the “shrunken log2 fold change” value turned out to be 0.23.

Turning to RRIRHRPPRLPRPRPRPWFKPRP, the “shrunken log2 fold change” value is 0.0141.

With RRIRGRPPRLPRPRPRPNKWPRP, the “shrunken log2 fold change” value amounted to 0.0346.

On to RRIRCRPPRLPRPRPRPPGHPRP, for which the “shrunken log2 fold change” value worked out at 0.422.

In the case of RRIRTRPPRLPRPRPRPVCKPRP, the “shrunken log2 fold change” value was -0.0432.

RRIRNRPPRLPRPRPRPNCNPRP: the “shrunken log2 fold change” value was -0.549.

Take RRIRWRPPRLPRPRPRPGPDPRP: the “shrunken log2 fold change” value was 0.533.

As for RRIRTRPPRLPRPRPRPITKPRP, the “shrunken log2 fold change” value amounted to 0.0123.

With RRIRKRPPRLPRPRPRPLDSPRP, the “shrunken log2 fold change” value worked out at 0.233.

Consider RRIRERPPRLPRPRPRPTHLPRP, for which the “shrunken log2 fold change” value amounted to 0.229.

As to RRIRDRPPRLPRPRPRPHLGPRP, the “shrunken log2 fold change” value is 0.0158.

As for RRIRWRPPRLPRPRPRPYWNPRP, the “shrunken log2 fold change” value was -0.645.

For RRIRVRPPRLPRPRPRPSSEPRP, the “shrunken log2 fold change” value is -0.327.

In the case of RRIRIRPPRLPRPRPRPTFGPRP, the “shrunken log2 fold change” value is -0.28.

Consider RRIRIRPPRLPRPRPRPLLCPRP, for which the “shrunken log2 fold change” value is -0.462.

Turning to RRIRDRPPRLPRPRPRPLFVPRP, the “shrunken log2 fold change” value is -0.168.

RRIRIRPPRLPRPRPRPKPEPRP: the “shrunken log2 fold change” value was found to be 0.0874.

In the case of RRIRQRPPRLPRPRPRPKPPPRP, the “shrunken log2 fold change” value was found to be 0.27.

Regarding RRIRCRPPRLPRPRPRPMTDPRP, the “shrunken log2 fold change” value is -0.0858.

Regarding RRIRCRPPRLPRPRPRPAAMPRP, the “shrunken log2 fold change” value was determined as 0.281.

For RRIRHRPPRLPRPRPRPCTCPRP, the “shrunken log2 fold change” value was -0.0115.

Turning to RRIRARPPRLPRPRPRPHPPPRP, the “shrunken log2 fold change” value was found to be 0.706.

RRIRLRPPRLPRPRPRPIDSPRP: the “shrunken log2 fold change” value was -0.0384.

On to RRIRARPPRLPRPRPRPMETPRP, for which the “shrunken log2 fold change” value is -0.0508.

Regarding RRIRYRPPRLPRPRPRPRYGPRP, the “shrunken log2 fold change” value was -0.678.

These data come from the supplement of paper PMC9112550, “Optimization of the antimicrobial peptide Bac7 by deep mutational scanning” (BMC Biology, 2022).
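Further: peptides expressed intracellularly from a pBAD plasmid library in pooled LB shake-flask culture, induced with 0.3% L-arabinose, DNA abundance read by NGS, three biological replicates, DESeq2 with apeglm shrinkage.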
